In doi:10.1101/2024.01.20.576357:

Target: SpyCatcher-VLP (virus-like particle of SpyCatcher-HBc) (Hepatitis B virus)
Assay: cryo-EM structure

SpyCatcher-VLP (virus-like particle of SpyCatcher-HBc)
stoichiometry N (monomers per VLP): 180
